This assay deals with T1, GST-YcgR-HA fusion (wild-type YcgR of E. coli) (E. coli, UniProt P76010 1-244).
T1 sequence (looked up): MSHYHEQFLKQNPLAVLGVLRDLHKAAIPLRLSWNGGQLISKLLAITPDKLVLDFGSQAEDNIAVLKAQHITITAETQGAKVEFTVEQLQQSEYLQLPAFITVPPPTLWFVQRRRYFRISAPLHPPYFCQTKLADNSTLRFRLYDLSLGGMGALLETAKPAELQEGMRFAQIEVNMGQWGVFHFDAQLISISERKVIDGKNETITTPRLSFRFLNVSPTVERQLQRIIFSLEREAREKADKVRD
Kind of assay: pull-down.

B1: FliM (E. coli) (natural protein, UniProt P06974 1-334, looked up)
chain: MGDSILSQAEIDALLNGDSEVKDEPTASVSGESDIRPYDPNTQRRVVRERLQALEIINERFARHFRMGLFNLLRRSPDITVGAIRIQPYHEFARNLPVPTNLNLIHLKPLRGTGLVVFSPSLVFIAVDNLFGGDGRFPTKVEGREFTHTEQRVINRMLKLALEGYSDAWKAINPLEVEYVRSEMQVKFTNITTSPNDIVVNTPFHVEIGNLTGEFNICLPFSMIEPLRELLVNPPLENSRNEDQNWRDNLVRQVQHSQLELVANFADISLRLSQILKLNPGDVLPIEKPDRIIAHVDGVPVLTSQYGTLNGQYALRIEHLINPILNSLNEEQPK
Turning to B1, the “fold increase of binding with c-di-GMP at 5 μM or higher over no added c-di-GMP” value is around 2 fold.

B2: FliG (E. coli) (natural protein, UniProt P0ABZ1 1-331, looked up)
chain: MSNLTGTDKSVILLMTIGEDRAAEVFKHLSQREVQTLSAAMANVTQISNKQLTDVLAEFEQEAEQFAALNINANDYLRSVLVKALGEERAASLLEDILETRDTASGIETLNFMEPQSAADLIRDEHPQIIATILVHLKRAQAADILALFDERLRHDVMLRIATFGGVQPAALAELTEVLNGLLDGQNLKRSKMGGVRTAAEIINLMKTQQEEAVITAVREFDGELAQKIIDEMFLFENLVDVDDRSIQRLLQEVDSESLLIALKGAEQPLREKFLRNMSQRAADILRDDLANRGPVRLSQVENEQKAILLIVRRLAETGEMVIGSGEDTYV
With B2, the “fold increase of binding with c-di-GMP at 5 μM or higher over no added c-di-GMP” value is around 2 fold.

The record behind these values is article PMC2929022 (Molecular cell, 2010).
